According to publication PMC5657569 (Molecular cell, 2017):

B1: CARM1, purified human protein (enzyme, UniProt Q86X55 1-608, looked up)
chain: MAAAAAAVGPGAGGAGSAVPGGAGPCATVSVFPGARLLTIGDANGEIQRHAEQQALRLEVRAGPDSAGIALYSHEDVCVFKCSVSRETECSRVGKQSFIITLGCNSVLIQFATPNDFCSFYNILKTCRGHTLERSVFSERTEESSAVQYFQFYGYLSQQQNMMQDYVRTGTYQRAILQNHTDFKDKIVLDVGCGSGILSFFAAQAGARKIYAVEASTMAQHAEVLVKSNNLTDRIVVIPGKVEEVSLPEQVDIIISEPMGYMLFNERMLESYLHAKKYLKPSGNMFPTIGDVHLAPFTDEQLYMEQFTKANFWYQPSFHGVDLSALRGAAVDEYFRQPVVDTFDIRILMAKSVKYTVNFLEAKEGDLHRIEIPFKFHMLHSGLVHGLAFWFDVAFIGSIMTVWLSTAPTEPLTHWYQVRCLFQSPLFAKAGDTLSGTCLLIANKRQSYDISIVAQVDQTGSKSSNLLDLKNPFFRYTGTTPSPPPGSHYTSPSENMWNTGSTYNLSSGMAVAGMPTAYDLSSVIASGSSVGHNNLIPLANTGIVNHTHSRMGSIMSTGIVQGSSGAQGSGGGSTSAHYAVNSQFTMGGPAISMASPMSIPTNTMHYGS
B2: Estrogen receptor alpha (ERα), purified human protein (receptor, UniProt P03372 1-595, looked up)
chain: MTMTLHTKASGMALLHQIQGNELEPLNRPQLKIPLERPLGEVYLDSSKPAVYNYPEGAAYEFNAAAAANAQVYGQTGLPYGPGSEAAAFGSNGLGGFPPLNSVSPSPLMLLHPPPQLSPFLQPHGQQVPYYLENEPSGYTVREAGPPAFYRPNSDNRRQGGRERLASTNDKGSMAMESAKETRYCAVCNDYASGYHYGVWSCEGCKAFFKRSIQGHNDYMCPATNQCTIDKNRRKSCQACRLRKCYEVGMMKGGIRKDRRGGRMLKHKRQRDDGEGRGEVGSAGDMRAANLWPSPLMIKRSKKNSLALSLTADQMVSALLDAEPPILYSEYDPTRPFSEASMMGLLTNLADRELVHMINWAKRVPGFVDLTLHDQVHLLECAWLEILMIGLVWRSMEHPGKLLFAPNLLLDRNQGKCVEGMVEIFDMLLATSSRFRMMNLQGEEFVCLKSIILLNSGVYTFLSSTLKSLEEKDHIHRVLDKITDTLIHLMAKAGLTLQQQHQRLAQLLLILSHIRHMSNKGMEHLYSMKCKNVVPLYDLLLEMLDAHRLHAPTSRGGASVEETDQSHLATAGSTSSHSLQKYYITGEAEGFPATV

Columns and labels:
[1] = target: p300, purified recombinant protein from baculovirus (human, UniProt Q09472 1-2414); assay: cryo-EM structure
[2] = target: B1; assay: cryo-EM structure

Chain of p300, purified recombinant protein from baculovirus (Q09472 whole entry): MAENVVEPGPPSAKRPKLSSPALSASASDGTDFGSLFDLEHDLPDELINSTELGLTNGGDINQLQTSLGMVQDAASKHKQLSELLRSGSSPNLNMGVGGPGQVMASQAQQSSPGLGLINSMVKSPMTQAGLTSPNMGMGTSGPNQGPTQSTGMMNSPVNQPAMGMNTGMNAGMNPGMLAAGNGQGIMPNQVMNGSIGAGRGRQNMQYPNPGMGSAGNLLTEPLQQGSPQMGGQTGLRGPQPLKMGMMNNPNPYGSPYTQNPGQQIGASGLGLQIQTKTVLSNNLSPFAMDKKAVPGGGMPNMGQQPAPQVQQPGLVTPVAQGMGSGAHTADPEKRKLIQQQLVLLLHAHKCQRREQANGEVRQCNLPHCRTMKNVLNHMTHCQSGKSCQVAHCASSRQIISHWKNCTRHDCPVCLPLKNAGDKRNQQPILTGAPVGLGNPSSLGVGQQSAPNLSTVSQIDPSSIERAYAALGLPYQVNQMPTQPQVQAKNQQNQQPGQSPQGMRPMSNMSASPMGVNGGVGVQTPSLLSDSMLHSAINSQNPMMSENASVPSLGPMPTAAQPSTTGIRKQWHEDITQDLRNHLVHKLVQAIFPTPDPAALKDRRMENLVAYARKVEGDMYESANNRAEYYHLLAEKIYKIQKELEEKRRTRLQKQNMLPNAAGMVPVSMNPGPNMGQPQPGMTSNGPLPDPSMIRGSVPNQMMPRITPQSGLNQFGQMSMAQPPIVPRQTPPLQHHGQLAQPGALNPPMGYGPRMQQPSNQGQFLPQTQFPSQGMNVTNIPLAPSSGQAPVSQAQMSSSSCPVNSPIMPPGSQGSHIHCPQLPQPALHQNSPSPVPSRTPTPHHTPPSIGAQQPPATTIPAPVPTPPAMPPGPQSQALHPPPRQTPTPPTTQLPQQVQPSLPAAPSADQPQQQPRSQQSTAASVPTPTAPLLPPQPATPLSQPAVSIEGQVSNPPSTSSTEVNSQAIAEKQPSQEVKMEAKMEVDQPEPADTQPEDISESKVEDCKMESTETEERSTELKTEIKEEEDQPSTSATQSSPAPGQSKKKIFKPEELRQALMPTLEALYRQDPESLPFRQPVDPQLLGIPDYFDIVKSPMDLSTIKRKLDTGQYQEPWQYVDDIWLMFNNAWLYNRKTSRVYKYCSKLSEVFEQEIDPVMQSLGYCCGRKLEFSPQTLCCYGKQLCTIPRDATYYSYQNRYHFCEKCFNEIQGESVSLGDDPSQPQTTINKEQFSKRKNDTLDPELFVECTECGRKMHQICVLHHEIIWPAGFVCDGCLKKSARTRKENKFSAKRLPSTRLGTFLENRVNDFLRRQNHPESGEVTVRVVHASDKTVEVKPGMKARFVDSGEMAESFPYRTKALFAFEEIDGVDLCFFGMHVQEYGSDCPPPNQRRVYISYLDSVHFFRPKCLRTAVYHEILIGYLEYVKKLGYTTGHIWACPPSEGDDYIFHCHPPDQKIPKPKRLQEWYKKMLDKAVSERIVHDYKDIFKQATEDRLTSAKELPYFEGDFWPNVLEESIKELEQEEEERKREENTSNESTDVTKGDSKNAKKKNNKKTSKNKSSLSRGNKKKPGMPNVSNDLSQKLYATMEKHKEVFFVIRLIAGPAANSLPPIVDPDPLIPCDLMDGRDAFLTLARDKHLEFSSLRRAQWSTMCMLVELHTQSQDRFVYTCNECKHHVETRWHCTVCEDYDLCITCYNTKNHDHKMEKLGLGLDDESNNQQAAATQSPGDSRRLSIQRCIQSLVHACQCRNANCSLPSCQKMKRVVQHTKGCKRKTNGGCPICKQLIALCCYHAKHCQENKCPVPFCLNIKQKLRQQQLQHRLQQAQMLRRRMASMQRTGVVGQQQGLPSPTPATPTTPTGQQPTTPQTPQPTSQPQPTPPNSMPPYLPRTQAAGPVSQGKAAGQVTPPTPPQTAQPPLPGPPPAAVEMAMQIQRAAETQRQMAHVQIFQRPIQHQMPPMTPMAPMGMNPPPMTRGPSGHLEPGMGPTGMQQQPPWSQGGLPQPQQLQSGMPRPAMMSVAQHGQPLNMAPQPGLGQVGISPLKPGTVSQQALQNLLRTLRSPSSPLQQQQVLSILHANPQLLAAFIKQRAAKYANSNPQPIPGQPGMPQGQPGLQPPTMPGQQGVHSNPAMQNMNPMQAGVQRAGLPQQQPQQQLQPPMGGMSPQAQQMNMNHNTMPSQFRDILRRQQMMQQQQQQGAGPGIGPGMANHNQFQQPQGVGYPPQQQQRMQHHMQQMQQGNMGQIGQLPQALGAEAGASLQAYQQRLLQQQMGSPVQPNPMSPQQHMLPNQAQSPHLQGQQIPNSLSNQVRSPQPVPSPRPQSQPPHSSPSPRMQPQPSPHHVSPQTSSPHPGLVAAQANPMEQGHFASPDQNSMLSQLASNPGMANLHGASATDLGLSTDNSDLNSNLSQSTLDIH

Binder | binding result [1] | binding result [2]
B1 | binds | –
B2 | binds | binds
